Results from article PMC13185310, “A versatile nanobody platform for live and super-resolution imaging of synaptic vesicle dynamics and plasticity in rodent and human neurons” (Journal of Nanobiotechnology, 2026).
Values belong to the binder of their own block, whether it stands above or below them.

Tests used:
Conditions in all cases: one partner purified
[1] = target: T1, endogenous Syt1 on the surface of live hippocampal neurons (uPAINT) (Rattus norvegicus (assumed), UniProt P21707); experiment: single-molecule imaging on live neurons (uPAINT); live hippocampal neurons (21-22 DIV) in high-K+ buffer with 1 nM labelled nanobody complex, HILO, 50 Hz for 320 s, 37 °C
T1 construct: Synaptotagmin 1 (Syt1), endogenous; also called surface-exposed Syt1; source: endogenous, live hippocampal neurons (21-22 DIV)

[2] = target: T2, endogenous Synaptotagmin 1 of primary hippocampal neurons (proximity labelling and PLA) (rat (endogenous in primary hippocampal …, UniProt P21707)); experiment: proximity labelling; NbLumSyt1-APEX2 taken up by live primary neurons (30 min, with biotin-phenol), 1 mM H2O2 for 30 s; streptavidin beads, LC-MS/MS; controls: no nanobody, NbALFA-APEX2
T2 construct: Synaptotagmin 1 (Syt1), endogenous; spectra searched against the Rattus norvegicus proteome (UP000234681); neurons 'in most cases' from Wistar rat pups; also called Syt1; Syt1-lum; source: endogenous, live primary hippocampal neurons

[3] = target: T3, endogenous Synaptotagmin 1 of wild-type mouse neurons / brain (Mus musculus, UniProt P46096); experiment: co-IP; GFP-tagged nanobody preloaded on GFP Selector beads; lysate of WT or Syt1 KO mouse brain, 1 h at 4 °C; blot with a Syt1 cytoplasmic antibody
T3 construct: Synaptotagmin 1 (Syt1), mouse, endogenous; On live neurons in the uptake experiment; in a detergent lysate in the immunoprecipitation; also called endogenous Syt1; Syt1; source: endogenous, WT mouse brain lysate (methods; the legend says mouse primary neurons); endogenous, on live WT mouse primary neurons

[4] = target: T4, endogenous human Syt1 of human iPSC-derived neurons (Homo sapiens, UniProt P21579); experiment: immunostaining of cells or tissue; live staining of 80-day-old human iPSC-derived hypothalamic neurons with 5.5 µM pHluorin-labeled nanobody, 20 min at 37 °C, with 30 mM KCl or 1 µM TTX, after blocking the surface pool with unlabeled nanobody; fixed and stained with anti-GFP, anti-Syt1, anti-TUBB3
T4 construct: Synaptotagmin 1 (Syt1), human, endogenous; also called endogenous Syt1; source: endogenous, live human iPSC-derived hypothalamic-like neurons
T4 sequence (P21579 whole entry): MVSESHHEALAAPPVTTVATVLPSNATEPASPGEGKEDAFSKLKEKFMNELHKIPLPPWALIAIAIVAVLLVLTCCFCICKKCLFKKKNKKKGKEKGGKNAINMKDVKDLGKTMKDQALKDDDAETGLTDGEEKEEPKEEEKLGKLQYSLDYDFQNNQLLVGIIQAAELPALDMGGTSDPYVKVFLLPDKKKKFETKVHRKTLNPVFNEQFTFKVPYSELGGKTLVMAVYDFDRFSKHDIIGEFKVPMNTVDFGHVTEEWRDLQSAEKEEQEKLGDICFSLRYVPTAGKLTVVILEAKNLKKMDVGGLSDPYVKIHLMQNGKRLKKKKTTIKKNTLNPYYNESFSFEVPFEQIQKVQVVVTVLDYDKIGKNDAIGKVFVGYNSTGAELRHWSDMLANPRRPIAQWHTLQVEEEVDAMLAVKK

T1 sequence (P21707 whole entry): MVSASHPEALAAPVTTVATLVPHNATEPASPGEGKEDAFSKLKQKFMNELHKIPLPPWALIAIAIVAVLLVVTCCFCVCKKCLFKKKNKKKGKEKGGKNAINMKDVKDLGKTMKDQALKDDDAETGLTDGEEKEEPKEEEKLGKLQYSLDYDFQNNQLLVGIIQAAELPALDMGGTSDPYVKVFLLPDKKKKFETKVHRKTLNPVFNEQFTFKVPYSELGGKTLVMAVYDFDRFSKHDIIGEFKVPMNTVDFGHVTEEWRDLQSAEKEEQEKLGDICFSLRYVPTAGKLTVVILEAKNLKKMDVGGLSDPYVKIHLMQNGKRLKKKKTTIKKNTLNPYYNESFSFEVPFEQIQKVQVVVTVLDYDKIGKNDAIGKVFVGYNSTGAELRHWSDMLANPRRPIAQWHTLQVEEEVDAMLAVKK
T2 sequence (P21707 whole entry): as above
T3 sequence (P46096 whole entry): as the sequence (P21707 whole entry) above, with H6R counted along it

binding result [1]: binds
B1: NbLumSyt1-HALO bound to the Halo-ligand JF549 (VHH)
VHH: EVQLVESGGGLVQTGGSLRLSCTASGSIGSISVMGWYRQVPGTQYELVAGISRGGSTWYEDSVKGRFTISRDNAKNTLYLQMNSLKPEDTGMYYCAGGDYSDRLGSWGQGTQVTVSS
notes: alpaca nanobody clone 1F12; as the nanobody of m1 (PDB 8B8I chain A); also called NbLumSyt1-HALO/JF549; NbLumSyt1-Halo/JF549; source: produced and purified via NanoTag Biotechnologies

binding result [2]: binds
B2: NbLumSyt1-APEX2 (VHH)
VHH: B1 VHH
notes: alpaca nanobody clone 1F12; as the nanobody of m1 (PDB 8B8I chain A); also called Nb-APEX2

binding result [3]: binds
B3: NbLumSyt1 fused to a GFP tag (VHH)
VHH: B1 VHH
notes: alpaca nanobody clone 1F12; as the nanobody of m1 (PDB 8B8I chain A); Held on GFP Selector beads in the IP; detected with anti-GFP after uptake in neurons; also called GFP-tagged nanobody

binding result [1]: binds
binding result [4]: binds
B4: NbLumSyt1-pHluorin (VHH)
VHH: B1 VHH
notes: alpaca nanobody clone 1F12; as the nanobody of m1 (PDB 8B8I chain A); In uPAINT it was precomplexed with an anti-GFP nanobody carrying Atto647N (a label); A version with a TEV site in the linker also exists; also called NbSyt1-pH; pHluorin-labeled Syt1 nanobody
